Test results taken from patent US20200207859A1 (priority 2017, published 2020).

How the values were obtained:
[1] = system: SUP-B15 (ALL); test: Cell killing assay (cell proliferation, Cell Titer-Glo); format: cell-based; conditions: 72 hrs
Protocol: Cytotoxicity effects of the free drug linkers and conjugates were measured with a cell proliferation assay. A total of 12500 cells in a volume of 25 μl were seeded in a 384-well flat bottom white polystyrene plate on the day of assay. Free drug-linkers and conjugates were formulated at 2× starting concentration (1000 nM for free drug linkers and 100 nM for ADCs) in RPMI medium and filtered through MultiScreen HTS 96-Well Filter Plates (Millipore). Filter sterilized samples were serial diluted (1:3) under sterile conditions and added into treatment wells. Plates were cultured at 37° C. in a CO2 incubator for 72 hrs. For cell viability measurement, 30 μl of Cell Titer-Glo® reagent (Promega Corp.) was added into each well, and plates processed as per product instructions. Relative luminescence was measured on an ENVISION® plate reader (Perkin-Elmer; Waltham, Mass.). Relative luminescence readings were converted to % viability using untreated cells as controls. Data was fitted with non-linear regression analysis, using log(inhibitor) vs. response, variable slope, 4 parameter fit equation using GraphPad Prism. Data was expressed as % relative cell viability vs. dose of free drug-linker or conjugate in nM.

[2] = system: HH T lymphoma cells; test: T lymphoma cell line cell killing assay; format: cell-based; conditions: 120 hours
Protocol: (§1) A total of 12500 cells in a volume of 25 μL were seeded in a 384-well flat bottom white polystyrene plate the day before the assay. […] Filter-sterilized compounds were serial diluted in culture medium and 25 μL of the compounds were added into treatment wells in quadruplicates. Plates were cultured at 37° C. in a CO2 incubator for 120 hours. For cell viability measurement, 30 μL of Cell Titer-Glo® reagent (Promega Corp.; Madison, Wis.) was added into each well, and plates were processed per product instructions. Relative luminescence was measured on an ENVISION® plate reader (Perkin-Elmer; Waltham, Mass.). Relative luminescence readings were converted to percent (%) viability using untreated cells as controls. Data was fitted with non-linear regression analysis, using log(inhibitor) vs. response, variable slope, 4-parameter fit equation using GraphPad Prism (GraphPad v 5.00, Software; San Diego, Calif.). Data was expressed as percent (%) relative cell viability (average of the quadruplicates) vs. dose of compounds in units of nanomolar (nM). Cell killing EC50 values and span were calculated by Prism in order to evaluate the potency of each compound on each cell line.

[3] = system: My-La T lymphoma cells; test: T lymphoma cell line cell killing assay; format: cell-based; conditions: 120 hours
Protocol: as §1

[4] = system: HuT-78 T lymphoma cells; test: T lymphoma cell line cell killing assay; format: cell-based; conditions: HuT-78, 120 hours
Protocol: as §1

[5] = system: SU-DHL-6 NHL tumors; test: Subcutaneous SU-DHL-6 non-Hodgkin's lymphoma model; format: in vivo, mouse; conditions: CB17 SCID mice, s.c. SU-DHL-6, 10 mg/kg q7dx3 IV
Protocol: Female CB17 SCID mice 9 weeks of age were anesthetized with isoflurane and implanted subcutaneously into the right flank with a 1:1 mixture of SU-DHL-6 cells and matrigel. Randomization, enrollment into treatment groups, and start of treatment was initiated approximately 14 days post implantation. Treatment groups are outlined in Table 6. All test articles were formulated in 10 mM citrate pH 6.0, 9% sucrose and diluted in PBS. Body weight and tumor size were monitored twice per week until mean of control treated tumors were >1000 mm^3 or end of study. Animal body weights included the tumor weight. Percent body weight change (BWC) is calculated relative to weight on the day of treatment. No samples were collected at the end of study.
Tumor size on day 18 post-tumor implantation (last day control animals were on study) was analyzed using a one-way analysis of variance (ANOVA) with Dunnett's multiple comparison test. A probability of less than 5% (p<0.05) was considered as significant.

[6] = system: MM.1S multiple myeloma cells; test: Disseminated MM.1S multiple myeloma model; format: in vivo, mouse; conditions: NSG mice; for survival: MM.1S i.v., day 129 post inoculation; for tumor burden: hCD138+ myeloma cells in the bone marrow / hCD138+ cells in the bone marrow: MM.1S; for tumor burden: hCD138+ myeloma cells in the bone marrow: day 32; for hCD138+ cells in the bone marrow: day 129
Protocol: Female NOD SCID gamma (NSG) mice 8 weeks of age were inoculated with multiple myeloma MM.1S cells into the tail vein. Randomization by body weight and start of treatment was initiated 11 days post tumor inoculation. Treatment groups are outlined in Table 5. Test articles were formulated in 10 mM citrate, pH 6.0, 10% sucrose and diluted in PBS for administration. […] For each group, a subset of animals was used for bone marrow harvest and analysis (n=3) and the remaining animals (n=5) were monitored for survival. Survival endpoint was characterized by >20% body weight loss and clinical signs including lethargy, hind limb paralysis or moribundity. On day 32 (3 weeks after start of treatment), 3 animals from each group were randomly chosen to be euthanized for bone marrow harvest (pooled from tibia and femur) for flow cytometry. On day 129 (˜4 months after start of treatment), all surviving animals were euthanized and bone marrow was harvested (pooled from tibia and femur) for flow cytometry.
Body weights were monitored at least twice per week for up to 129 days. All graphs are presented as mean±standard error of the mean (SEM) versus days post-treatment start.
Percent body weight change (BWC) is calculated relative to weight on the day of treatment. Substantial toxicity was defined as a >20% decrease in animal weight, at which point affected animals are euthanized.
Bone marrow cells from mouse femur and tibia were pooled and assessed for human CD138 expression using the Alexa Fluor 647 mouse anti-human CD138 clone MI15 (BD Biosciences #562097) according to the manufacturer's protocol. CD138 is a specific surface antigen for MM and plasma cells in the bone marrow (Chilosi, M. et al. (1999), supra). Direct immunofluorescence flow cytometric analysis was performed using an LSRII flow cytometer and FACS Diva Software. Data was analyzed using Flowjo (Tree Star, Inc., Ashland, Oreg.).
Human CD138+ cells in the bone marrow on day 32 was analyzed using one-way analysis of variance (ANOVA) with a Dunnett's adjustment at 0.05 significance level. Data from MM.1 s positive control were excluded from analysis. A probability of less than 5% (p<0.05) was considered as significant.

[7] = system: MJ T lymphoma cells; test: T lymphoma cell line cell killing assay; format: cell-based; parameters: key to Cell killing Span: NC = Not Calculable; NK = No Killing; conditions: 120 hours
Protocol: as §1

[8] = system: Jurkat T leukemia cells; test: T lymphoma cell line cell killing assay; format: cell-based; parameters: key to Cell killing Span: NC = Not Calculable; NK = No Killing; conditions: 120 hours
Protocol: as §1

B1: Conjugate A: anti-CD74 IgG with pAMF at heavy chain EU position 404 conjugated to DBCO-PEG4-maytansine (conjugate)
VH: QVQLVESGGGVVQPGRSLRLSCAASGFNFSDYGMHWVRQAPGKGLEWVAVIWYDGSISYYADSVKGRFTISRDNSKNTLYLQMNSLRAEDTAVYYCARGGTVEHGAVYGTDVWGQGTTVTVSS
VL: DIQMTQSPSSVSASVGDRVTITCRASQGIGSWLAWYQQKPGKAPKLLIYAADRLQSGVPSRFSGSGSGTDFTLTISSLQPEDFATYYCQQYHTYPLTFGGGTKVEIK
modifications: non-natural residues
In the case of B1, the “Cell Killing Activity Span” value [1] is reported as 64%, the “Cell Killing Activity Span” value ([1]; listed as A) is reported as 65% and the “Cell killing Span” value [2] is reported as 77%. The EC50 [2] was 0.22 nM, the “cell killing activity (in words)” value [2] was “potent cell killing activity” and the “Cell killing Span” value [3] was 73%. For the same molecule, the EC50 [3] was 0.54 nM, the “cell killing activity (in words)” value [3] was “potent cell killing activity” and the “Cell killing Span” value [4] was 72%. For the same molecule, the EC50 [4] was 0.59 nM, the “cell killing activity (in words)” value [4] was “potent cell killing activity” and the “Average final tumor size on day 18” value [5] was 291 mm^3. For the same molecule, the “tolerability (effects on animal body weights)” value [5] was “well tolerated”, the “tumor growth inhibition compared to control” value ([5]; day 18) was about 80% and the survival ([6]; 3 mg/kg q7dx3 IV) was 100%. The survival ([6]; 10 mg/kg q7dx3 IV) was 100%, the “tumor burden: hCD138+ myeloma cells in the bone marrow” value ([6]; 3 mg/kg q7dx3 IV) was “significantly reduced tumor burden” and the “hCD138+ cells in the bone marrow” value ([6]; 3 mg/kg q7dx3 IV) was “no hCD138+ cells were detected”. The “tumor burden: hCD138+ myeloma cells in the bone marrow” value ([6]; 10 mg/kg q7dx3 IV) was “significantly reduced tumor burden”, the “hCD138+ cells in the bone marrow” value ([6]; 10 mg/kg q7dx3 IV) was “no hCD138+ cells were detected” and the “Cell killing Span” value [7] was “NC”. For the same molecule, the “cell killing activity (in words)” value [7] was “less potent cell killing”, the “Cell killing Span” value [8] was “NK” and the EC50 [8] was over 50 nM. For the same molecule, the “cell killing activity (in words)” value [8] was “No cell killing was observed”.
